Read-outs that look alike come from different tables or passages of the source.

Common to all, as to assay: SPR
In general terms: SPR reads the build-up and loss of mass on a sensor chip optically.

Test [1] deals with human IL-15+IL-15Ralpha complex (human).
Test [2] has as its target T1, cynomolgus IL-15+IL-15Ralpha complex (Macaca fascicularis).
T1 chain 1: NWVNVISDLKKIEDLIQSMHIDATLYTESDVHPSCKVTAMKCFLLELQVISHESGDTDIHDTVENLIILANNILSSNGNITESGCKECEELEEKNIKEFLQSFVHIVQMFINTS
T1 chain 2: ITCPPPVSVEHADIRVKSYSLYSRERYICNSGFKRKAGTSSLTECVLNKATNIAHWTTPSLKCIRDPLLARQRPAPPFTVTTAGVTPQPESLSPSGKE

Test [3] concerns the target human IL-15+IL-15Ralpha complex (human). The source holds these as a separate data set.
Test [4] has the same target. The source holds these as a separate data set.
For test [5] the target is unchanged. The source holds these as a separate data set.

B1: CALY-002 (antibody, V domains shown)
VH: EVQLVESGGGLVQPGGSLRLSCAASEFTFSNYAMSWVRQAPGKGLEWVATISRGGDYTYYPDSVKGRFTISRDNSKNTLYLQMNSLRAEDTAVYYCARRVSMITGGWAMDYWGQGTLVTVSS
VL: DVVMTQSPLSLPVTLGQPASISCRSSQSIVDITGNTYLEWYQQRPGQSPRLLIYKVFNRFSGVPDRFSGSGSGTDFTLKISRVEAEDVGVYYCFQDSFVPYTFGQGTKLEIK
A word on the Kd: it is the free concentration of one partner at which half of the binding sites on the other are occupied at equilibrium, for simple one-to-one binding. Low readings indicate a tighter complex, high ones a looser complex. With B1, the Kd came to 0.337 nM in test [1], 0.148 nM in test [2], 0.239 nM in test [3] and 0.201 nM in test [4].

B2: R1A3 (antibody, V domains shown)
VH: EVQLVQSGAEVKKPGESLKISCKVSGYFFTTYWIGWVRQMPGKGLEYMGIIYPGDSDTRYSPSFQGQVTISADKSISTAYLQWSSLKASDTAMYYCARGGHWNAFDFWGQGTLVTVSS
VL: EIVLTQSPGTLSLSPGERATLSCRASQSVSSSYLAWYQQKPGQAPRLLIYGASRRATGIPDRFSGSGSGTDFTLTISRLEPEDFAVYYCQQFDASQTFGQGTKLEIS
For B2, the Kd in test [5] was 0.353 nM.

The record behind these values is US20260285966 (published 2026).
